Results on 50 sequences are retold here after the domain aggregation screens of Martell et al. (2025).
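Further: 20 min heating vs room temperature control held 20 min.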

The nature of this data set: soluble fraction after stress (log2 fold change); higher = more stays soluble; pooled small domains, quantitative proteomics. The following applies: stress: 75 degC.
For “HMPESFSEMQKRTGVGEFSDDALSAKYVDSIDADVMSLDEYIMKVRGISLDDLEAERALRAR”, the “soluble fraction (log2)” value was found to be 0.0969.

“HMPETAQLTDIQVSRSQAHTGIFSLHYYLTGTDSRGERVRLEISGDDYTRLSGSSSVTVEYYRHTGRIVRY”: the “soluble fraction (log2)” value was -1.16.

“HMPETYVVFSKDGYANLRRGTTINSEILDVLDNGEYVTKLDEVGEWYRVEYADFDGGYIHKSQLKNI”: the “soluble fraction (log2)” value was -0.288.

Regarding “HMPFDRTVQLAGARARQLQALPRYREVLRLLDEGMNPREIGQVLDPPVTRQRASALIQQAKRAQMLGLFED”, the “soluble fraction (log2)” value was -1.04.

“HMPFNLKSLADRLSHVFPGLVKMRDDIGAIIVMDKIKVTEHGVTEGGGLAADRVRAVYNEFIKEY”: the “soluble fraction (log2)” value is -0.247.

Turning to “HMPFSLHGVNEGSRNDNAARIAGYLISKNLNLDFVRIFLHNWNRDNKPPLPQQEIDSVVDNVKKTHDRKN”, the “soluble fraction (log2)” value was -2.09.

As to “HMPGEATVPSVIGMTKAEAKAKLQASGFELGYSEFVASDKPKGEIVEQDPGAGETAKGGTEVNVKISDGS”, the “soluble fraction (log2)” value stood at 0.0718.

In the case of “HMPGLDTTILSDILSLKKELPSRSAAKILIMLILAKRIEEGSLNLRTINRILNQYGYTRESLL”, the “soluble fraction (log2)” value was 0.144.

Regarding “HMPGLQSVTPAELKIGMYVILPLAWDEHPFLKNHFLIQSEAQINKIRELGTKGIQIDLSKSHP”, the “soluble fraction (log2)” value was -1.9.

Turning to “HMPGMLVVYVTGAVRQPGRMVTLAAGSRVSDAIDAAGGLADDADAQALNLSARLNDGDLVHVPSALD”, the “soluble fraction (log2)” value was -0.264.

As for “HMPHILEITSSKILDELQDEKKMVYFHFEKQSNQYVYRLIFNSKNELMEFKKSLEKNSSILDVRADM”, the “soluble fraction (log2)” value is -1.81.

For the sequence “HMPHITDAEWEVMRVVWANHHVTSKEVISILEDKMNWKATTIKTLLGRLVEKGALSTEQDGKKFIYTAR”, the “soluble fraction (log2)” value is -1.6.

With “HMPHTDATDKQIIALILETLKDGQKHSVSEMTFPGIPREKTAQLLHQMIEEETVRIQNGVLFLPH”, the “soluble fraction (log2)” value came to 0.00795.

Regarding “HMPIDNTLLSRITSLGVSTTEAEKLISKHGEEALKANLEVVEERLSKPNLPLLDSPAAYLKTALKNG”, the “soluble fraction (log2)” value was 0.415.

“HMPIEQVEVPNLTNMTREEAESTLTSLNLKAQVHEEANEADEGKVFKQGTNTGEMVDEGSTIEIWVS”: the “soluble fraction (log2)” value is -0.549.

Regarding “HMPIHAGERLTLRLAGEGREAGQAIGYLEDGTLVIVERARHLIGQDVTVEVTRTLQTAGGRLVFAHLVE”, the “soluble fraction (log2)” value was -1.1.

As for “HMPKDLEKRAAILAAAKHLFPVHGFEGTSMDAIAALANVSKLTVYSHFKDKESLFTEAIREK”, the “soluble fraction (log2)” value was -0.0647.

On to “HMPKDMAKRASILTAASKLFVQHGYGGVSMDQIAAEAGVSKLTVYSHYGDKDSLFAAAVQAH”, for which the “soluble fraction (log2)” value is -0.617.

For “HMPKELAPYDILARYYLTVNNSKQSIALLEQYLDKAGSAPAALKAKLLLAGILYPSGNKERAEKLVEEVIK”, the “soluble fraction (log2)” value is -0.463.

“HMPKETFLNLDEEKRQAIINVLLKNFSEQHISQVKVSAIVSGIGMSRGAFYKYFEDLEDAYRFTISYFSA”: the “soluble fraction (log2)” value amounted to 0.147.

Turning to “HMPKLTKEEIQFIDNYLKNSGVEYIDTRAEVVDHVASEIESRLSANNTTNFYEEFKVYMVQHKETLLK”, the “soluble fraction (log2)” value was -0.21.

As to “HMPKLVGEVMQTLDALRREKGLSLLLVEQNARAALGVVDRVYVLERGRVVFEGSAKEAMEDQDVMEFYLG”, the “soluble fraction (log2)” value was found to be 0.0465.

With “HMPKRSKDEAELEFLEMLRDNQVDSTWSFGKIISQLGSTDPRYWMVDDDPLWKRQIFEKYLSNR”, the “soluble fraction (log2)” value was -0.228.

Consider “HMPLDISDDSKAVLKLLKNDSNELNTVKSASGLSNKKWDKTIKELTKNKIVSVSKTEDGLYIHLI”, for which the “soluble fraction (log2)” value was 0.438.

Take “HMPLDYQELRNISPQAARQAILQILKANKGNVSQTARMLGITRKTVYKAMAKREAGNLDDGSRAPK”: the “soluble fraction (log2)” value was -1.41.

Turning to “HMPLLELPDDFYPAWKPKTIYVQGQRIMLDGVAFEAKWWTQGDNPASGQADPGSSPWRTLTQEEIAKLLE”, the “soluble fraction (log2)” value is -1.52.

Regarding “HMPLLKIGAQGHDVRVVQEALQRAGYAIEGVTGIFDEATREAVLAFQRDQQLTESGTVDRATWHALRR”, the “soluble fraction (log2)” value is -0.0683.

For “HMPLLSPRQLDVLSLAAGGLSDAQIAGRLVLSESTVRVHFHHIIEKLGVTDRAGAIAWYEQSRS”, the “soluble fraction (log2)” value is -2.05.

“HMPLNAFDVAGYRLGYGGGYFDRTLAALSPRPLAVGVGFEINRLESIRPEAHDQRLDWIVTENGAFRPA”: the “soluble fraction (log2)” value was -1.58.

Take “HMPLNAHIVGRGKRDRRGKRGAPYSIVLELGRDENGKRIQKWYSGYPTKAAAEEDKIRMLRELQTGEYVPQ”: the “soluble fraction (log2)” value is -0.889.

As to “HMPLPFSPVMFVGTKSGAQTDLDGNYKIETYYSSDSLKVVVLGYAPLAKKVKQGTTSVVNFELSAAS”, the “soluble fraction (log2)” value worked out at 0.161.

With “HMPLPLYVQIKESLRGQIFDGTYGEHERLPSENDLMSSFGVSRITVRQALSDLEKEELIFKVPGKGAFVSR”, the “soluble fraction (log2)” value was -1.5.

Consider “HMPLQKNRPKIKPQKVVFLFSVEWMWSPAHNRIDSYFINIKPSRYYLWNSFFDRHSFSDYWDFIGYTEN”, for which the “soluble fraction (log2)” value was 0.1.

With “HMPLSDAEKAAAIATQAKERALKLSPEMISYLLRHASRDMRTLSMLVVALDQYTLEQKRPVTLPLLRELLS”, the “soluble fraction (log2)” value was -0.0668.

Take “HMPMIQHFHRMISAALGISEKQIVQTLGLLNDGATIPFISRYRKEVTGGLDEVQIESIKTHYEKLNEIAK”: the “soluble fraction (log2)” value is -2.33.

As for “HMPMPQDEVSYALGLSIGQNFKASGIKAITSEDFIAGLQDALAEREPQMTTERAREVINQLFMRLQQEESE”, the “soluble fraction (log2)” value came to 0.323.

“HMPMTDYQLIRSNRRTIALQITRDARVVVRAPLYASEADIRRFVESHRAWIESHLDRQRARTD”: the “soluble fraction (log2)” value was -3.25.

As for “HMPMTRILFLPDDRTILQFDSAEPAEDLVSAVNAGRWLPPEPYRSGFGLGLPENRLRASRQGALVVVMLS”, the “soluble fraction (log2)” value is -0.984.

Take “HMPNDYRKKLEILAKEKGAEYLHTMLTEVDPKSALQIHTNNIKRTIRALEFYHQTGMKISEHNEAEREK”: the “soluble fraction (log2)” value was -0.204.

Turning to “HMPNIHVVFAEEWTDRRLDKVLSEYFDGYSRSFIKKLFDDGLILVNSKAVKPSYKVRAGDMIDISVPDPV”, the “soluble fraction (log2)” value was -1.83.

Consider “HMPNPALESARPAFEAFLSRFSDGEAMRGPAWGLWSLLHRKGNAPTASHAAGRDGMGVLAFLRHWQWG”, for which the “soluble fraction (log2)” value is -0.452.

Regarding “HMPPDLSEAIQKRIEGKTDEALEILRKLYNEYPESTEIITMLGRTLLDAEEYALAAFRLEQALDLGG”, the “soluble fraction (log2)” value was -0.699.

Take “HMPPDVIENIFKNDANKIIDLYNMAPRGQKETIVEMIKNKRLQGINVDANVLVKLGELTGIDFVN”: the “soluble fraction (log2)” value is -0.087.

With “HMPPLVLRGVVMGADGARLAILAQGEAGAALGIGETWKEYTLRSVTDQSATLEHRSGTITLTR”, the “soluble fraction (log2)” value was -0.701.

As for “HMPPNPELGKKLLKLRKEFKMTQDDVANILGMSRTSFSKYENGIANPPLQVMRKLASIYNVGLEYLI”, the “soluble fraction (log2)” value is -1.84.

For “HMPQEMIEILATPNGWLRVRQGPGTNYPEITKVNSGEEFPLLEEKDSWFKIRIEEGQEGWISSQYAQKEE”, the “soluble fraction (log2)” value came to 0.00978.

With “HMPQGFEDLTEREREVLTLIAEGRTNQEIADALVISIKTVNRHRENIMAKLNLHSRVELVRYAIAQGLI”, the “soluble fraction (log2)” value was -2.61.

As for “HMPQNLQDQLFELILSRYPRRADAVEDLANILHLGKDPVYRRLRGDTFLSPLEISTLALHFRISLDALIV”, the “soluble fraction (log2)” value was -2.5.

For the sequence “HMPQPEIEIAAVVPYSAGALLSRIHDDGELLAPVEYRGEGVFVHARVPADIEAAMRRGGMLSPAET”, the “soluble fraction (log2)” value worked out at 0.0386.

“HMPQQVFKREDLQKWGLTGQADSRKRREKLGQLLGIGYGNGKQLIHRLNMFQVDRATFEQAIKQINQEEDH”: the “soluble fraction (log2)” value was -0.539.
